Target: T1, EDEM1-HA (UniProt Q925U4 1-652)
T1 construct: source: HEK 293, transiently transfected (pCMVsport2), in lysate
T1 sequence (looked up): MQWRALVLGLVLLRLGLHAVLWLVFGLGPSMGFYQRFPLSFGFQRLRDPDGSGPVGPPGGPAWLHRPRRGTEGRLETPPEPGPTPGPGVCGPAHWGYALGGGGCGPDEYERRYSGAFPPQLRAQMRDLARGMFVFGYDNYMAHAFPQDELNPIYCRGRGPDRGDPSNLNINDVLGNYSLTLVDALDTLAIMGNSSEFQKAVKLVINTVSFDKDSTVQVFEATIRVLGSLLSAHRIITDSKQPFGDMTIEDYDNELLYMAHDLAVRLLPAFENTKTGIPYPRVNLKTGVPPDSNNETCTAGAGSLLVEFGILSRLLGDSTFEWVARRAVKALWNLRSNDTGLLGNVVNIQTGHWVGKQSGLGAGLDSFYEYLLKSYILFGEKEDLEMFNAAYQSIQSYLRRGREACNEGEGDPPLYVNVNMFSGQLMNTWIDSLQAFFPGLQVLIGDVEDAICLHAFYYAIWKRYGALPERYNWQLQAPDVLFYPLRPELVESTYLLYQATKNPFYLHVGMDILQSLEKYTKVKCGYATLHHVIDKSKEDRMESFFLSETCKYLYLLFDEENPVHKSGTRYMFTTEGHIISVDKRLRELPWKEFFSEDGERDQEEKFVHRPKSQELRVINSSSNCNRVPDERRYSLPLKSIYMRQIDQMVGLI
Assay: co-IP; HEK 293 cells expressing EDEM1-HA or EDEM2-HA with FLAG-TXNDC11 or FLAG-PDI; lysed in mild conditions (1% NP-40, 50 mM Tris/HCl pH 8, 150 mM NaCl); immunoprecipitated with anti-EDEM1 or anti-EDEM2, immunoblotted with anti-FLAG
Conditions: partners not purified

B1: FLAG-PDI (enzyme)
chain: not shown
notes: mammalian protein disulfide isomerase (PDI); vector a gift from E. Avezov; also called protein disulfide isomerase; source: HEK 293, transiently transfected, in lysate
fold weaker coIP than with TXNDC11: ~15 fold

Reference: article PMC6194124, “Mannosidase activity of EDEM1 and EDEM2 depends on an unfolded state of their glycoprotein substrates” (Communications Biology, 2018)
